According to the RNAGym collection of RNA variant scans (doi:10.1021/acssynbio.7b00057):

B1: Pistol ribozyme (parent)
chain: GGGUCGUUGUUCCAUAAUCGCGUGGAUAUGGCACGCAAGUUUCUACCGGGCACCGUAAAUGUCCGACUGGAGCCGUUCGGGCGGCUAUAAACAGACCUCAGGCCCGAAGCGUGGCGGCACCUGCCGCCGGUGGUAAAAAAGAUCGGAAGAGCACACGUCU

Variants of: B1
Experiment: aptazyme ON/OFF ratio, guanine; higher = stronger switching; co-transcriptional cleavage with and without guanine

Variant | aptazyme ON/OFF ratio
U8A U11G C13G | 1.04
U8A U11G C13A | 1.03
U8C | 3.02
U8C G9A U10A U11C C12U C13U | 1.14
U8C G9A U10A U11C C12U C13A | 1.13
U8C G9A U10A U11C C12U C13G | 1.14
U8C G9A C12G C13G | 1.27
U8C G9A C12G C13A | 1.23
U8C G9A C12G C13U | 1.26
U8A U10G U11C C12U C13U | 1.2
U8A U10G U11C C12U C13G | 1.27
U8A U10G U11C C12U C13A | 1.3
U8C G9A U10C U11A C12U C13A | 1.37
U8C G9A U10C U11A C12U C13U | 1.28
U8C G9A U10C U11A C12U C13G | 1.33
U8C G9A U10C U11C C12A C13A | 1.13
U8C G9A U10C U11C C12A C13U | 1.1
U8C G9A U10C U11C C12A C13G | 1.12
U8C C12G C13G | 1.15
U8C C12G C13A | 1.19
U8C C12G C13U | 1.31
U8A U10C U11C C12U C13A | 1.05
U8A U10C U11C C12U C13U | 1.04
U8A U10C U11C C12U C13G | 1.06

Variant | aptazyme ON/OFF ratio
U8A U10C U11A C12A | 1.13
U8A U10C U11A C12G | 1.19
U8A U10C U11A C12U | 1.2
U8C G9A U10C U11G C12G C13U | 1.14
U8C G9A U10C U11G C12G C13G | 1.23
U8C G9A U10C U11G C12G C13A | 1.42
U8C C12A C13G | 1.1
U8C C12A C13U | 1.21
U8C C12A C13A | 1.24
U8A U10C U11C C12G C13U | 1.11
U8A U10C U11C C12G C13A | 1.21
U8A U10C U11C C12G C13G | 1.1
U8C G9A U10A C12U C13U | 1.33
U8C G9A U10A C12U C13G | 1.24
U8C G9A U10A C12U C13A | 1.16
U8A U10G | 1.62
U8A U10C U11A C12A C13U | 1.3
U8A U10C U11A C12A C13A | 1.21
U8A U10C U11A C12A C13G | 1.1
U8C G9A C12A C13G | 1.14
U8C G9A C12A C13A | 1.33
U8C G9A C12A C13U | 1.17
U8A U10G U11C C12A C13U | 1.21
U8A U10G U11C C12A C13G | 1.14

Variant | aptazyme ON/OFF ratio
U8A U10G U11C C12A C13A | 1.26
U8A U10G C12G C13G | 1.12
U8A U10G C12G C13A | 1.37
U8A U10G C12G C13U | 1.34
U8A U11A C12A C13A | 1.15
U8A U11A C12A C13G | 1.16
U8A U11A C12A C13U | 1.25
U8A U10C U11A C13G | 1.07
U8A U10C U11A C13U | 1.07
U8A U10C U11A C13A | 1.17
U8C G9A U10C C13U | 1.66
U8C G9A U10C C13A | 1.06
U8C G9A U10C C13G | 1.1
U8A U10C U11C C12U | 1.06
U8A U10C U11C C12A | 1.08
U8A U10C U11C C12G | 1.27
U8A U11G | 1.25
U8A U11A | 1.14
U8A U11C | 1.12
U8A U10C U11G C12U C13U | 1.27
U8A U10C U11G C12U C13G | 1.2
U8A U10C U11G C12U C13A | 1.26
U8C G9A U10A U11G C12G | 1.12
U8C G9A U10A U11G C12U | 1.26

Variant | aptazyme ON/OFF ratio
U8C G9A U10A U11G C12A | 1.04
U8C G9A U10A C12A C13U | 1.31
U8C G9A U10A C12A C13G | 1.13
U8C G9A U10A C12A C13A | 1.17
U8C G9A U10A C12G C13U | 1.31
U8C G9A U10A C12G C13A | 1.14
U8C G9A U10A C12G C13G | 1.18
U8C G9A | 1.78
U8A U11C C13G | 1.08
U8A U11C C13A | 1.13
U8A U11C C13U | 1.09
U8C G9A U10C U11C C12G | 1.18
U8C G9A U10C U11C C12U | 1.08
U8C G9A U10C U11C C12A | 1.17
U8C G9A U10C U11G C12A C13G | 1.27
U8C G9A U10C U11G C12A C13U | 1.4
U8C G9A U10C U11G C12A C13A | 1.44
U8A U10G U11C C12G C13U | 1.38
U8A U10G U11C C12G C13A | 1.41
U8A U10G U11C C12G C13G | 1.25
U8A U10C U11C | 1.01
U8A U10C U11G | 1.18
U8A U10C U11A | 1.15
U8C G9A U10C U11C C12G C13A | 1.24

Variant | aptazyme ON/OFF ratio
U8C G9A U10C U11C C12G C13U | 1.16
U8C G9A U10C U11C C12G C13G | 1.3
U8A U11G C12G C13G | 1.27
U8A U11G C12G C13U | 1.47
U8A U11G C12G C13A | 1.17
U8A U11C C12A C13U | 1.38
U8A U11C C12A C13A | 1.24
U8A U11C C12A C13G | 1.17
U8C G9A U10A U11C C12G C13A | 1.21
U8C G9A U10A U11C C12G C13U | 1.3
U8C G9A U10A U11C C12G C13G | 1.35
U8C G9A U10A C13A | 1.17
U8C G9A U10A C13G | 1.05
U8C G9A U10A C13U | 1.42
U8C G9A U10C U11G C12A | 1.25
U8C G9A U10C U11G C12G | 1.27
U8C G9A U10C U11G C12U | 1.29
U8A U10G U11A C12G | 1.1
U8A U10G U11A C12A | 1.06
U8A U10G U11A C12U | 1.12
U8C G9A U10C U11A C12G C13G | 1.5
U8C G9A U10C U11A C12G C13U | 1.19
U8C G9A U10C U11A C12G C13A | 1.23
U8A U10G U11G C12U C13U | 1.43

Variant | aptazyme ON/OFF ratio
U8A U10G U11G C12U C13A | 1.15
U8A U10G U11G C12U C13G | 1.28
U8C G9A U10A U11A C12G | 1.32
U8C G9A U10A U11A C12U | 1.35
U8C G9A U10A U11A C12A | 1.3
U8C G9A U10A U11A C12U C13A | 1.28
U8C G9A U10A U11A C12U C13U | 1.19
U8C G9A U10A U11A C12U C13G | 1.18
U8A U10C U11G C12U | 1.37
U8A U10C U11G C12A | 1.09
U8A U10C U11G C12G | 1.23
U8A U11A C12U C13G | 1.21
U8A U11A C12U C13U | 1.18
U8A U11A C12U C13A | 1.23
U8C G9A U10C C12G C13U | 1.25
U8C G9A U10C C12G C13G | 1.4
U8C G9A U10C C12G C13A | 1.18
U8C G9A U10A U11A C12G C13G | 1.17
U8C G9A U10A U11A C12G C13A | 1.15
U8C G9A U10A U11A C12G C13U | 1.21
U8C G9A U10A U11G C12U C13A | 1.18
U8C G9A U10A U11G C12U C13G | 1.18
U8C G9A U10A U11G C12U C13U | 1.23
U8A U10C U11A C12G C13U | 1.34

Variant | aptazyme ON/OFF ratio
U8A U10C U11A C12G C13G | 1.39
U8A U10C U11A C12G C13A | 1.15
U8C G9A U10C U11A C12A C13U | 1.19
U8C G9A U10C U11A C12A C13A | 1.23
U8C G9A U10C U11A C12A C13G | 1.27
U8A U10G U11G C13U | 1.3
U8A U10G U11G C13G | 1.28
U8A U10G U11G C13A | 1.33
U8A U10G U11A C13G | 1.12
U8A U10G U11A C13A | 1.07
U8A U10G U11A C13U | 1.13
U8C G9A U10C U11A C13A | 1.2
U8C G9A U10C U11A C13U | 1.3
U8C G9A U10C U11A C13G | 1.15
U8A U11C C12U | 1.54
U8A U11C C12A | 1.29
U8A U11C C12G | 1.51
U8A U10C C12U C13A | 1.22
U8A U10C C12U C13G | 1.11
U8A U10C C12U C13U | 1.35
U8C G9A C12U | 1.38
U8C G9A C12A | 1.35
U8C G9A C12G | 1.26
